# Laboratory results: PMC5730846 (2017)
# B1: Tsc1-D-His6 labeled with Texas Red maleimide (domain or fragment)
# chain: DGCSDSMVGHNEEASGHNGETKTPRPSSARGSSGSRGGGGSSSSSSELSTPEKPPHQRAGPFSSRWETTMGEASASIPTTVGSLPSSKSFLGMKARELFRNKSESQCDEDGMTSSLSESLKTELGKDLGVEAKIPLNLDGPHPSPPTPDSVGQLHIMDYNETHHEHS
# modifications: Texas Red C2 maleimide label, 0.8 labels/Tsc1-D
# Assays:
# recombinant Hsp90α [1] = biological target: T1, recombinant Hsp90α (human, UniProt P07900 1-732); test: FP; ADP
# recombinant Hsp90α [2] = biological target: T1, recombinant Hsp90α; test: FP; AMPPNP
binder,measurement,setting,value
B1,Kd,recombinant Hsp90α [1],810 nM
same,Kd,recombinant Hsp90α [2],240 nM
